Results on one molecule are retold here after US20240350615A1 (BEIJING WANTAI BIOLOGICAL PHARMACY ENTERPRISE, published 2024).

In the experiment the target is T1, polypeptide 2C01 (human rhinovirus (W10 (HRV-C15))).
T1 construct: synthetic peptide coated on the ELISA plate; also called 2C (aa 151-163)
T1 peptide: YSLPPDPKYFDGY
The experiment is described as follows: indirect ELISA, peptide coated 1 ug/well, 9A5 at 2 ug/mL. Background: In an ELISA, binding on a coated surface is turned into a signal by an enzyme label.

B1: monoclonal antibody 9A5 (antibody, V domains shown)
VH: EVQLVESGGDLVKPGGSLKLSCAASGFTFSIYGMSWVRQTPDKRLEWVATISSAGIYTYYPDSVKGRFTISRDNAKNTLYLQMSSLKSEDTAMYYCARHGYGLFDVWGAGTTVTVSS
VL: not shown
notes: also called anti-C149-2C01 mouse monoclonal antibody
For the molecule B1, the binding result was “binds”.
